Results published in publication PMC10641069, “Intra- and inter-molecular regulation by intrinsically-disordered regions governs PUF protein RNA binding” (Nature Communications, 2023).
“Also recorded” adds a separate entry of the source. Read-outs that look alike come from different tables or passages of the source.

Assays:
[1] = target: T1, FBF-2 RBD + CT (Caenorhabditis elegans, UniProt Q09312); assay: ITC, peptide into FBF-2 RBD + CT, no RNA; assay type: binding, C. elegans; conditions: mean of two independent replicates; 20 °C, 20 mM HEPES pH 7.4, 150 mM NaCl, 0.5 mM TCEP; one-site model
T1 construct: A cDNA fragment encoding C. elegans FBF-2 RBD + CT (residues 164-632) was cloned into the pSMT3 vector; His6-SUMO (N, cleaved yes); made in house; host or cells: E. coli BL21-CodonPlus (DE3)-RIL
T1 sequence (Q09312 whole entry, looked up): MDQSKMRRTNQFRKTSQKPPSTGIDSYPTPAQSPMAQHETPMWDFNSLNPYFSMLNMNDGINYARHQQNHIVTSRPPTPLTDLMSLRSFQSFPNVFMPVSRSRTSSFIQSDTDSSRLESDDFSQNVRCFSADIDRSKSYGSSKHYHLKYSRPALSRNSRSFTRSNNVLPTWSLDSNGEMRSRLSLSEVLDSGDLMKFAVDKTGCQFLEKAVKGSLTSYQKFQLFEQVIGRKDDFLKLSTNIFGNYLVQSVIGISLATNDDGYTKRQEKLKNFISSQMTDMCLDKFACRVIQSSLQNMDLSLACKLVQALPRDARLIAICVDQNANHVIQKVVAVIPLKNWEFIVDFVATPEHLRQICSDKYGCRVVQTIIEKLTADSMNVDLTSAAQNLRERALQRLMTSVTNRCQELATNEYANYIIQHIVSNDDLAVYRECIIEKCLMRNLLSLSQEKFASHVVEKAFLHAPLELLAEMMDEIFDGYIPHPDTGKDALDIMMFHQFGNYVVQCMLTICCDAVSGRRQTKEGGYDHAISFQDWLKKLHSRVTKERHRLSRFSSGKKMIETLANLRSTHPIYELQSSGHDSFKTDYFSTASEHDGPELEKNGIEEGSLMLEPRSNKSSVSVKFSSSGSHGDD

[2] = target: T2, FBF-2 RBD + CT L610A (Caenorhabditis elegans, UniProt Q09312, L610A); assay type: binding, C. elegans; conditions: pH 7.4
T2 construct: A cDNA fragment encoding C. elegans FBF-2 RBD + CT (residues 164-632) was cloned into the pSMT3 vector; His6-SUMO (N, cleaved yes); made in house; host or cells: E. coli BL21-CodonPlus (DE3)-RIL (as for wild type)

[3] = target: T3, FBF-2 RBD (Caenorhabditis elegans, UniProt Q09312); conditions: reported previously, cited from earlier work
T3 construct: The FBF-2 RBD protein (residue 164-575) was purified as described previously; His6-SUMO (N, cleaved yes); made in house; host or cells: E. coli BL21-CodonPlus (DE3)-RIL (host inferred: b50 says the procedure was otherwise the same as for RBD + CT)
T3 sequence (Q09312 whole entry, looked up): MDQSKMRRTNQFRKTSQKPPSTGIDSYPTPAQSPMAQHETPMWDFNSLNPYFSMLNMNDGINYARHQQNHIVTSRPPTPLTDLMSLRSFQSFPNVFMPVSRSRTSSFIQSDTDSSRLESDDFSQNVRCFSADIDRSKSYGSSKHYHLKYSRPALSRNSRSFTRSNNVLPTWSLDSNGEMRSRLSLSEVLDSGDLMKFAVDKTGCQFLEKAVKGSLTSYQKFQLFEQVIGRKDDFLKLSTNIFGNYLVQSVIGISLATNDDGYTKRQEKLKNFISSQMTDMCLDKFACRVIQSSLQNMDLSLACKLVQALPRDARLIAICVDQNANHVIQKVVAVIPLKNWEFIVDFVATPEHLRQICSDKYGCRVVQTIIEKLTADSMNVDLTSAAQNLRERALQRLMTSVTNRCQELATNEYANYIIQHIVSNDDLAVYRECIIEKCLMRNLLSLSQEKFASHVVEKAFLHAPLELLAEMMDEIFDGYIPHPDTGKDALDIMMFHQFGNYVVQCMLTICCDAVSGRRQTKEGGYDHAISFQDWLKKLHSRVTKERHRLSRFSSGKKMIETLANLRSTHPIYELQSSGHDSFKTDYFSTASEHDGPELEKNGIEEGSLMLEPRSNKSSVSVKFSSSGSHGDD
Excerpt: Given that the core residues of three distinct PIMs—FBF-2 CT, LST-1 A, and LST-1 B—all bind to the same site of FBF-2, we hypothesized that the intramolecular FBF-2 CT binding could compete with LST-1 A and LST-1 B binding. To assess that idea, we investigated how the CT affects the protein interaction affinities of the FBF-2 RBD to LST-1 A and LST-1 B, using isothermal titration calorimetry (ITC, Supplementary Table 3). No RNA was included in these experiments. We first measured the binding affinity of an isolated CT peptide and the FBF-2 RBD (no CT), by titrating the peptide, FBF-2^601–632, ... || Fig. 2 The FBF-2 CT competes with partner proteins for binding to the RBD. Representative isothermal titration calorimetry thermograms (top, differential power [DP] vs time) and corresponding titration curve-fitting graphs (bottom) are shown for interaction between a FBF-2 RBD and FBF-2 CT, c FBF-2 RBD + CT and LST-1 A, d FBF-2 RBD + CT and LST-1 B, e FBF-2 RBD and FBF-2 CT L610A, f FBF-2 RBD + CT L610A and LST-1 A, and g FBF-2 RBD + CT L610A and LST-1 B. Data points on the curve-fitting graphs are shown as open circles. b Previously reported mean Kd from two independent replicates with simila ... || We next compared the protein interaction affinities of LST-1 A or LST-1 B with either FBF-2 RBD + CT or RBD alone (Fig. 2c–g, Supplementary Table 3). For these experiments, we titrated the LST-1 peptide into an ITC cell containing either RBD + CT or RBD.

[4] = tested on: gld-1 FBEa RNA; conditions: LST-1 peptide with FBF-2 RBD (no CT); cited from earlier work
Excerpt: LST-1 is expressed in GSCs in response to signaling from the stem cell niche. The LST-1 protein is largely unstructured (Fig. 1b), including an N-terminal region that is sufficient for self-renewal of GSCs[22]. This LST-1 IDR region harbors two PUF Interacting Motifs (PIMs), LST-1 A and LST-1 B, that interact with FBF-2, each with a KxxL sequence[17],[22]. Crystal structures of FBF-2 bound to LST-1 A or B identify a seven-residue core region, including the KxxL sequence, that binds to FBF-2 with similar peptide backbone structure[17],[18]. The two LST-1 PIMs are biologically redundant for ... || If the FBF-2 CT reduces RNA-binding affinity (Fig. 3b) and competes with LST-1 for binding (Fig. 2c, d), why then does FBF-2 depend on LST-1 to repress RNAs in nematodes? To address this question, we explored RNA-binding affinities of FBF-2 RBD + CT in the presence of either LST-1 A or LST-1 B (Fig. 6; Supplementary Table 3). In contrast to results with FBF-2 RBD alone[17],[18], both LST-1 A and LST-1 B increased the RNA-binding affinity of FBF-2 RBD + CT.

[5] = target: T4, FBF-2 RBD (FBF-2 residues 164-575) (C. elegans, UniProt Q09312 164-575); assay: ITC; peptide (100–400 µM) titrated from the syringe into the cell containing FBF-2 (10–30 µM); 20 °C; 20 mM HEPES pH 7.4, 150 mM NaCl, 0.5 mM TCEP; no RNA; one-site model; mean of two replicates; conditions: both partners purified
T4 construct: The tag was cleaved with TEV protease; also called FBF-2^164–575; RBD alone; source: E. coli, purified (Ni-NTA, heparin, Superdex 75); not shown: His6-SUMO, N-terminal, cleaved
T4 sequence (looked up): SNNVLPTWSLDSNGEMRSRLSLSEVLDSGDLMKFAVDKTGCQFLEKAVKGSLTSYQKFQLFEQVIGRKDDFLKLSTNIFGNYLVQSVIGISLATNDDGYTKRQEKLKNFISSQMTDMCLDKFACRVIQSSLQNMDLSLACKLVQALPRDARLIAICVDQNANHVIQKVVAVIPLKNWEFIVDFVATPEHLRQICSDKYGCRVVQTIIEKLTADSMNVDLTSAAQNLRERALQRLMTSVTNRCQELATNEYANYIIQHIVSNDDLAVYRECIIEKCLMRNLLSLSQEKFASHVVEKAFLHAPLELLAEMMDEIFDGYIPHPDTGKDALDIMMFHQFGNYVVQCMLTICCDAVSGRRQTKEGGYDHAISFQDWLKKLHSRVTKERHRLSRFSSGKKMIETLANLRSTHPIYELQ

T2 sequence (Q09312 164-632 L610A): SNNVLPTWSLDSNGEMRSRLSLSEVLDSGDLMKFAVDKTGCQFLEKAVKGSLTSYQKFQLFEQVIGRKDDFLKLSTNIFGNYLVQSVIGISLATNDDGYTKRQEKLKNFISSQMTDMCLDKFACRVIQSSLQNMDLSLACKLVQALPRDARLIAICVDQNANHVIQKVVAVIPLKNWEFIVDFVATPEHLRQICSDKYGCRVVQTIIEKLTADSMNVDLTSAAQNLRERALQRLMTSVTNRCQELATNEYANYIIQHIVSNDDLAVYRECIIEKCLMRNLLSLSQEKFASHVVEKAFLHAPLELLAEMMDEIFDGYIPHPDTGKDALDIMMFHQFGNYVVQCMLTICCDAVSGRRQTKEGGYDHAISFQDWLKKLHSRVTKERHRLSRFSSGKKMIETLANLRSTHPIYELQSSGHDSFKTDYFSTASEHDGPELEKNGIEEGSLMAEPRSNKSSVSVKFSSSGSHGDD

For “LST-1 A: LST-1 A peptide, residues 19–50, expressed in E. coli (STIAYSKSQHEAPKQLLQLRSEIKPLIPLNQP; left off: His6-SUMO, N-terminal, cleaved)”, the Kd [1] was “No binding; also recorded: too weak to be detected by ITC; also recorded: Not detected”, the “∆G” value [2] was -31.9 kJ/mol and the “-T∆S” value ([2]; replicate 1, 20 °C) was 18.6 kJ/mol. For the same molecule, the “∆G” value ([2]; replicate 1, 20 °C) was -31.4 kJ/mol, the “∆H” value ([2]; replicate 1, 20 °C) was -50.0 kJ/mol and the “-T∆S” value ([2]; replicate 2, 20 °C) was 19.8 kJ/mol. For the same molecule, the “∆H” value ([2]; replicate 2, 20 °C) was -51.7 kJ/mol, the “-T∆S” value ([3]; replicate 1) was 25.4 kJ/mol and the “∆G” value ([3]; replicate 1) was -31.9 kJ/mol. The “∆H” value ([3]; replicate 1) was -57.3 kJ/mol, the “-T∆S” value ([3]; replicate 2) was 25.1 kJ/mol and the “∆G” value ([3]; replicate 2) was -32.0 kJ/mol. For the same molecule, the “∆H” value ([3]; replicate 2) was -57.1 kJ/mol and the “effect on RNA-binding affinity of FBF-2 RBD” value [4] was “no effect on RNA-binding affinity”.

B1: FBF-2 CT peptide (FBF-2 residues 601-632) (peptide, UniProt Q09312 601-632, looked up)
chain: NGIEEGSLMLEPRSNKSSVSVKFSSSGSHGDD
notes: holds the PIM SLMLEPR (607-613); The tag was cleaved with Ulp1 protease; also called FBF-2^601–632; source: E. coli BL21-CodonPlus (DE3)-RIL, purified (Ni-NTA, HiTrap Q flow-through, Superdex 75); not shown: His6-SUMO, N-terminal, cleaved
In the case of B1, the Kd [5] is reported as 35 µM.
